Patent US20260265329A1, “POLYPEPTIDE AND DERIVATIVE THEREOF, COMPOSITION, AND USE THEREOF” (HANGZHOU SCIWIND BIOSCIENCES CO., LTD., priority 2023, published 2026)
Starred links: 1 amine or outer side, 2 acyl side, 3 side chain; linkers in the order of their positions; H or OH if unused. Non-standard residues stand in square brackets, D forms with d. Primed or numbered codes have the meaning given here. *: point of attachment. C20 diacid = O=C(O)CCCCCCCCCCCCCCCCCCC(=O)*; C18 diacid = O=C(O)CCCCCCCCCCCCCCCCC(=O)*; C16 diacid = O=C(O)CCCCCCCCCCCCCCC(=O)*; γGlu = O=C(O)[C@H](CCC(=O)[*:2])N[*:1]; βAsp = O=C(O)[C@H](CC(=O)[*:2])N[*:1]; Hyp = O=C(O)[C@@H]1C[C@@H](O)CN1; Inp′ = not defined here; Trx′ = not defined here; AEEA = NCCOCCOCC(=O)O

T1: human amylin receptor on CHO-K1/Ga15/AMY3 cells (amylin receptor/CRE-luc cell line) (human) (UniProt P30988)
T1 sequence (looked up) 1: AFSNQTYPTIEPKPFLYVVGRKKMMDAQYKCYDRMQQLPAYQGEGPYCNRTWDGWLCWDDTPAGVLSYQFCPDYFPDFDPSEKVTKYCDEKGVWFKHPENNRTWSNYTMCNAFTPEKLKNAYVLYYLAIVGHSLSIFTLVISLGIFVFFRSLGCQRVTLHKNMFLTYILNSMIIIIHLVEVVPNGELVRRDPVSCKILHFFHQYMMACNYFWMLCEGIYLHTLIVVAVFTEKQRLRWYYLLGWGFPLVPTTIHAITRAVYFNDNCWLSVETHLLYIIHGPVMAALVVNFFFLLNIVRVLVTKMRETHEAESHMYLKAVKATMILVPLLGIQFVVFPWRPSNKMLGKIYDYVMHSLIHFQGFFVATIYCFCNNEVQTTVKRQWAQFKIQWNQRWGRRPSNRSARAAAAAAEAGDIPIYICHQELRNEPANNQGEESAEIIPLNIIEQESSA
T1 sequence (looked up) 2: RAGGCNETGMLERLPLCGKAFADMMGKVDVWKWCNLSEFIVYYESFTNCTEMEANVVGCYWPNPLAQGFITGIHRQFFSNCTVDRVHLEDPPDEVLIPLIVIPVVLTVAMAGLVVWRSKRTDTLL


Target: T1, human amylin receptor on CHO-K1/Ga15/AMY3 cells (amylin receptor/CRE-luc cell line) (human)
Experiment: cell-based or functional assay

Row | Binder | EC50 (luciferase assay, amylin receptor/CRE-luc CHO cells) [nM] | Relative activity (the EC50 ratio of Cagrilintide to the compound) [%]
1 | {C20 diacid}-E[AEEA][AEEA]ASQLSTAATQRLADFLRHSSNNLKPILPPTNVGSNT[Hyp]-NH2 (SMILES CC[C@H](C)[C@H](NC(=O)[C@@H]1CCCN1C(=O)[C@H](CCCCN)NC(=O)[C@H](CC(C)C)NC(=O)[C@H](CC(N)=O)NC(=O)[C@H](CC(N)=O)NC(=O)[C@H](CO)NC(=O)[C@H](CO)NC(=O)[C@H](Cc1c[nH]cn1)NC(=O)[C@H](CCCNC(=N)N)NC(=O)[C@H](CC(C)C)NC(=O)[C@H](Cc1ccccc1)NC(=O)[C@H](CC(=O)O)NC(=O)[C@H](C)NC(=O)[C@H](CC(C)C)NC(=O)[C@H](CCCNC(=N)N)NC(=O)[C@H](CCC(N)=O)NC(=O)[C@@H](NC(=O)[C@H](C)NC(=O)[C@H](C)NC(=O)[C@@H](NC(=O)[C@H](CO)NC(=O)[C@H](CC(C)C)NC(=O)[C@H](CCC(N)=O)NC(=O)[C@H](CO)NC(=O)[C@H](C)NC(=O)COCCOCCNC(=O)COCCOCCNC(=O)[C@H](CCC(=O)O)NC(=O)CCCCCCCCCCCCCCCCCCC(=O)O)[C@@H](C)O)[C@@H](C)O)C(=O)N[C@@H](CC(C)C)C(=O)N1CCC[C@H]1C(=O)N1CCC[C@H]1C(=O)N[C@H](C(=O)N[C@@H](CC(N)=O)C(=O)N[C@H](C(=O)NCC(=O)N[C@@H](CO)C(=O)N[C@@H](CC(N)=O)C(=O)N[C@H](C(=O)N1C[C@H](O)C[C@H]1C(N)=O)[C@@H](C)O)C(C)C)[C@@H](C)O) [M32] | 0.115 | 44
2 | {C18 diacid-γGlu}-ASQLSTAATQRLADFLRHSSNNLKPILPPTNVGSNT[Hyp]-NH2 (SMILES CC[C@H](C)[C@H](NC(=O)[C@@H]1CCCN1C(=O)[C@H](CCCCN)NC(=O)[C@H](CC(C)C)NC(=O)[C@H](CC(N)=O)NC(=O)[C@H](CC(N)=O)NC(=O)[C@H](CO)NC(=O)[C@H](CO)NC(=O)[C@H](Cc1c[nH]cn1)NC(=O)[C@H](CCCNC(=N)N)NC(=O)[C@H](CC(C)C)NC(=O)[C@H](Cc1ccccc1)NC(=O)[C@H](CC(=O)O)NC(=O)[C@H](C)NC(=O)[C@H](CC(C)C)NC(=O)[C@H](CCCNC(=N)N)NC(=O)[C@H](CCC(N)=O)NC(=O)[C@@H](NC(=O)[C@H](C)NC(=O)[C@H](C)NC(=O)[C@@H](NC(=O)[C@H](CO)NC(=O)[C@H](CC(C)C)NC(=O)[C@H](CCC(N)=O)NC(=O)[C@H](CO)NC(=O)[C@H](C)NC(=O)CC[C@H](NC(=O)CCCCCCCCCCCCCCCCC(=O)O)C(=O)O)[C@@H](C)O)[C@@H](C)O)C(=O)N[C@@H](CC(C)C)C(=O)N1CCC[C@H]1C(=O)N1CCC[C@H]1C(=O)N[C@H](C(=O)N[C@@H](CC(N)=O)C(=O)N[C@H](C(=O)NCC(=O)N[C@@H](CO)C(=O)N[C@@H](CC(N)=O)C(=O)N[C@H](C(=O)N1C[C@H](O)C[C@H]1C(N)=O)[C@@H](C)O)C(C)C)[C@@H](C)O) [M37] | 0.03 | 184
3 | {C16 diacid-γGlu}-ASQLSTAATQRLADFLRHSSNNLKPILPPTNVGSNT[Hyp]-NH2 (SMILES CC[C@H](C)[C@H](NC(=O)[C@@H]1CCCN1C(=O)[C@H](CCCCN)NC(=O)[C@H](CC(C)C)NC(=O)[C@H](CC(N)=O)NC(=O)[C@H](CC(N)=O)NC(=O)[C@H](CO)NC(=O)[C@H](CO)NC(=O)[C@H](Cc1c[nH]cn1)NC(=O)[C@H](CCCNC(=N)N)NC(=O)[C@H](CC(C)C)NC(=O)[C@H](Cc1ccccc1)NC(=O)[C@H](CC(=O)O)NC(=O)[C@H](C)NC(=O)[C@H](CC(C)C)NC(=O)[C@H](CCCNC(=N)N)NC(=O)[C@H](CCC(N)=O)NC(=O)[C@@H](NC(=O)[C@H](C)NC(=O)[C@H](C)NC(=O)[C@@H](NC(=O)[C@H](CO)NC(=O)[C@H](CC(C)C)NC(=O)[C@H](CCC(N)=O)NC(=O)[C@H](CO)NC(=O)[C@H](C)NC(=O)CC[C@H](NC(=O)CCCCCCCCCCCCCCC(=O)O)C(=O)O)[C@@H](C)O)[C@@H](C)O)C(=O)N[C@@H](CC(C)C)C(=O)N1CCC[C@H]1C(=O)N1CCC[C@H]1C(=O)N[C@H](C(=O)N[C@@H](CC(N)=O)C(=O)N[C@H](C(=O)NCC(=O)N[C@@H](CO)C(=O)N[C@@H](CC(N)=O)C(=O)N[C@H](C(=O)N1C[C@H](O)C[C@H]1C(N)=O)[C@@H](C)O)C(C)C)[C@@H](C)O) [M38] | 0.03 | 181
4 | {C20 diacid-βAsp-AEEA-AEEA}-ASQLSTAATQRLADFLRHSSNNLKPILPPTNVGSNT[Hyp]-NH2 (SMILES CC[C@H](C)[C@H](NC(=O)[C@@H]1CCCN1C(=O)[C@H](CCCCN)NC(=O)[C@H](CC(C)C)NC(=O)[C@H](CC(N)=O)NC(=O)[C@H](CC(N)=O)NC(=O)[C@H](CO)NC(=O)[C@H](CO)NC(=O)[C@H](Cc1c[nH]cn1)NC(=O)[C@H](CCCNC(=N)N)NC(=O)[C@H](CC(C)C)NC(=O)[C@H](Cc1ccccc1)NC(=O)[C@H](CC(=O)O)NC(=O)[C@H](C)NC(=O)[C@H](CC(C)C)NC(=O)[C@H](CCCNC(=N)N)NC(=O)[C@H](CCC(N)=O)NC(=O)[C@@H](NC(=O)[C@H](C)NC(=O)[C@H](C)NC(=O)[C@@H](NC(=O)[C@H](CO)NC(=O)[C@H](CC(C)C)NC(=O)[C@H](CCC(N)=O)NC(=O)[C@H](CO)NC(=O)[C@H](C)NC(=O)COCCOCCNC(=O)COCCOCCNC(=O)C[C@H](NC(=O)CCCCCCCCCCCCCCCCCCC(=O)O)C(=O)O)[C@@H](C)O)[C@@H](C)O)C(=O)N[C@@H](CC(C)C)C(=O)N1CCC[C@H]1C(=O)N1CCC[C@H]1C(=O)N[C@H](C(=O)N[C@@H](CC(N)=O)C(=O)N[C@H](C(=O)NCC(=O)N[C@@H](CO)C(=O)N[C@@H](CC(N)=O)C(=O)N[C@H](C(=O)N1C[C@H](O)C[C@H]1C(N)=O)[C@@H](C)O)C(C)C)[C@@H](C)O) [M33] | 0.145 | 37
5 | {C20 diacid}-D[AEEA][AEEA]ASQLSTAATQRLADFLRHSSNNLKPILPPTNVGSNT[Hyp]-NH2 (SMILES CC[C@H](C)[C@H](NC(=O)[C@@H]1CCCN1C(=O)[C@H](CCCCN)NC(=O)[C@H](CC(C)C)NC(=O)[C@H](CC(N)=O)NC(=O)[C@H](CC(N)=O)NC(=O)[C@H](CO)NC(=O)[C@H](CO)NC(=O)[C@H](Cc1c[nH]cn1)NC(=O)[C@H](CCCNC(=N)N)NC(=O)[C@H](CC(C)C)NC(=O)[C@H](Cc1ccccc1)NC(=O)[C@H](CC(=O)O)NC(=O)[C@H](C)NC(=O)[C@H](CC(C)C)NC(=O)[C@H](CCCNC(=N)N)NC(=O)[C@H](CCC(N)=O)NC(=O)[C@@H](NC(=O)[C@H](C)NC(=O)[C@H](C)NC(=O)[C@@H](NC(=O)[C@H](CO)NC(=O)[C@H](CC(C)C)NC(=O)[C@H](CCC(N)=O)NC(=O)[C@H](CO)NC(=O)[C@H](C)NC(=O)COCCOCCNC(=O)COCCOCCNC(=O)[C@H](CC(=O)O)NC(=O)CCCCCCCCCCCCCCCCCCC(=O)O)[C@@H](C)O)[C@@H](C)O)C(=O)N[C@@H](CC(C)C)C(=O)N1CCC[C@H]1C(=O)N1CCC[C@H]1C(=O)N[C@H](C(=O)N[C@@H](CC(N)=O)C(=O)N[C@H](C(=O)NCC(=O)N[C@@H](CO)C(=O)N[C@@H](CC(N)=O)C(=O)N[C@H](C(=O)N1C[C@H](O)C[C@H]1C(N)=O)[C@@H](C)O)C(C)C)[C@@H](C)O) [M34] | 0.132 | 40
6 | {C20 diacid-Inp′-AEEA-AEEA}-ASQLSTAATQRLADFLRHSSNNLKPILPPTNVGSNT[Hyp]-NH2 [M36] | 0.059 | 91
7 | {C20 diacid-Trx′-AEEA-AEEA}-ASQLSTAATQRLADFLRHSSNNLKPILPPTNVGSNT[Hyp]-NH2 (reading uncertain) [M35] | 0.043 | 124
